Patent US20100154070

Test system: piggyBac transposase (PBase) (Trichoplusia ni)
Experiment: cell_activity

PB[Act-RFP] donor transposon (PBL/PBR termini)
activity (% transposon single-positive founders) (mouse pronuclear co-injection with Act-PBase, 10.4% without helper, precise excision in male germline shown with Prm1-PBase (p230)): 34.8

PB[K14-Tyr, Act-RFP] donor transposon
activity (% founders with transposition) (mouse, 26/31 founders, Act-PBase): 83.9

PB[PGK-neo] donor transposon (PBL/PBR termini)
activity (mouse W4/129S6 ES cells, Act-PBase helper, scale: fold drug-resistant clones vs donor alone): 50

PB[SV40-neo] donor transposon (PBL/PBR termini)
activity (human 293 cells, CMV-PBase helper, scale: fold G418-resistant clones vs donor alone): 10
